Tested on: patients with moderate to severe OA of the hip or knee
Assay: Example 1: adjudicated joint safety events (RPOA, TJR)
Type: in vivo, human
Procedure: Investigators performed musculoskeletal examinations at each study visit. Investigators evaluated patients reporting increased severe or persistent pain via eDiary lasting […] to determine if additional follow-up was needed. Post-baseline x-rays (scheduled or for cause) were assessed by the central reader for possible or probable RPOA, subchondral insufficiency fracture, primary osteonecrosis, or pathologic fracture. If warranted, magnetic resonance imaging scans were performed and/or patients were referred to an orthopedic surgeon. All cases of possible or probable joint safety events or cases of TJR for any reason were adjudicated by a blinded Adjudication Committee consisting of orthopedic surgery, rheumatology, orthopedic pathology, and musculoskeletal radiology experts.

[1] = both tanezumab regimens pooled (n=464)

Substance: tanezumab: humanized immunoglobulin G Type 2 (IgG2) monoclonal antibody directed against human nerve growth factor (NGF); SEQ ID NOs: 9 or 11 and 10
- events adjudicated as RPOA (types 1 and 2): % of group (2.5 mg group): 2.2%
- events adjudicated as RPOA (types 1 and 2): % of group (2.5/5 mg group): 0.4%
- adjudicated RPOA type 1 (accelerated joint space narrowing): n (both tanezumab regimens pooled): 4
- adjudicated RPOA type 2 (damage or deterioration of the joint): n (both tanezumab regimens pooled): 2
- tanezumab-treated patients with TJRs and adjudicated RPOA (both tanezumab regimens pooled): 2
- adjudicated RPOA (type 1 or 2): % of tanezumab-treated patients [1]: 1.3%
- adjudicated RPOA (type 1 or 2): number of tanezumab-treated patients [1]: 6

— patent US20220089710A1, “Method of Treating Signs and Symptoms of Osteoarthritis” (Pfizer Inc., priority 2019, published 2022)
